From publication PMC10165364, “Pathological variants in TOP3A cause distinct disorders of mitochondrial and nuclear genome stability”

Key:
Conditions in all cases: protein: recombinant; tags: N-terminal TEV-cleavable 6xHis, cleaved; label: 5' 32P; single strand
TOP3A Ser810* = biological target: T1, TOP3A Ser810* (Homo sapiens, UniProt Q13472 16-809); test: EMSA; comparable to WT; 25 mM HEPES pH 7.5, 70 mM NaCl, 100 ug/ml BSA, 1 mM DTT, 10% glycerol; 10 fmol oligo, 0-250 fmol TOP3A in 20 ul; 37 C 15 min, then ice; 8% native PAGE in 0.5x TBE at 4 C
T1 sequence: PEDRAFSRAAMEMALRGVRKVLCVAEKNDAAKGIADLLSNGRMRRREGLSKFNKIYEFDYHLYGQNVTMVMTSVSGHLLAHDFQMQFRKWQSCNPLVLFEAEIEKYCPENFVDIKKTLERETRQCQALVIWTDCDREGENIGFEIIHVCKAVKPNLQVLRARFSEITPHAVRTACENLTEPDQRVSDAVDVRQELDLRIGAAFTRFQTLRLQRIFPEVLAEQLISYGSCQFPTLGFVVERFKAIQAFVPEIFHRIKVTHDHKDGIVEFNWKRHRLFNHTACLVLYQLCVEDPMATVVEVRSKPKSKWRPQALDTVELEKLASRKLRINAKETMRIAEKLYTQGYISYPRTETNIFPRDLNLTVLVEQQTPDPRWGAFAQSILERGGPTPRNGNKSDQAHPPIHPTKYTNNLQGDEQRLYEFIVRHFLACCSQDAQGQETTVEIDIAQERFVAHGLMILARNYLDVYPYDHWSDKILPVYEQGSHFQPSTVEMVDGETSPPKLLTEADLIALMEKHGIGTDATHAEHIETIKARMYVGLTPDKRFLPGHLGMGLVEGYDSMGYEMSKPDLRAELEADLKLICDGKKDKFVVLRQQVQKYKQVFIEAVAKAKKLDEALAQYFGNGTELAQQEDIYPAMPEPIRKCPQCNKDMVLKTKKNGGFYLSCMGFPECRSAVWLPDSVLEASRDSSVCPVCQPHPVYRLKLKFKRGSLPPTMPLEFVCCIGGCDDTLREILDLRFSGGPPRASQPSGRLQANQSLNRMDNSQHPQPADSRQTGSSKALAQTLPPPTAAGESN

TOP3A Met575Val = biological target: T2, TOP3A Met575Val (Homo sapiens, UniProt Q13472 16-934, M575V); test: EMSA; up to 250 fmol protein; 25 mM HEPES pH 7.5, 70 mM NaCl, 100 ug/ml BSA, 1 mM DTT, 10% glycerol; 10 fmol oligo, 0-250 fmol TOP3A in 20 ul; 37 C 15 min, then ice; 8% native PAGE in 0.5x TBE at 4 C
T2 sequence: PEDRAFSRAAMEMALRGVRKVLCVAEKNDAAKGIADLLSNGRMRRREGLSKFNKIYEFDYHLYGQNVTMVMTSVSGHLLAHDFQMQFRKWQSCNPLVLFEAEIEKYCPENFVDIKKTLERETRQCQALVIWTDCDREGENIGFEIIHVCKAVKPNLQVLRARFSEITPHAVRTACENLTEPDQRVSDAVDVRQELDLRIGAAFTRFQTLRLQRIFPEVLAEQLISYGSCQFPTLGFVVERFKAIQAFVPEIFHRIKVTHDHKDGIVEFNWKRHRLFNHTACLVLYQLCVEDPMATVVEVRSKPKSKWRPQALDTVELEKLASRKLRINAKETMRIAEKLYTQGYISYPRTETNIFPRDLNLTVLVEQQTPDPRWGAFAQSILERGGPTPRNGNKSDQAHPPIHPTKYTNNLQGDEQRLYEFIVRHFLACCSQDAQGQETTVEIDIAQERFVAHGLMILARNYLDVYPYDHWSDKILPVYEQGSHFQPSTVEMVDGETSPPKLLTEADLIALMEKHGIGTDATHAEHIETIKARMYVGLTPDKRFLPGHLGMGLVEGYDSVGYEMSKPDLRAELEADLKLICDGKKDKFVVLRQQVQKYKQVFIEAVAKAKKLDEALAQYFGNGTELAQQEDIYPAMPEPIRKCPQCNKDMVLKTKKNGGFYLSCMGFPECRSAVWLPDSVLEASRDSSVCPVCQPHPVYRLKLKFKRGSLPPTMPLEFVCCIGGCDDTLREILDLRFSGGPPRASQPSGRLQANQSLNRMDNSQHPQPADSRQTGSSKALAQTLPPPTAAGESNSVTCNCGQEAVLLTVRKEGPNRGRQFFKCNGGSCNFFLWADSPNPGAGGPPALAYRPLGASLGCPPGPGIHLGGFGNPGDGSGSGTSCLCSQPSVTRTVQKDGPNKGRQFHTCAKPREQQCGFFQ

TOP3A Leu37Val = biological target: T3, TOP3A Leu37Val (Homo sapiens, UniProt Q13472 16-934, L37V); test: as above
T3 sequence: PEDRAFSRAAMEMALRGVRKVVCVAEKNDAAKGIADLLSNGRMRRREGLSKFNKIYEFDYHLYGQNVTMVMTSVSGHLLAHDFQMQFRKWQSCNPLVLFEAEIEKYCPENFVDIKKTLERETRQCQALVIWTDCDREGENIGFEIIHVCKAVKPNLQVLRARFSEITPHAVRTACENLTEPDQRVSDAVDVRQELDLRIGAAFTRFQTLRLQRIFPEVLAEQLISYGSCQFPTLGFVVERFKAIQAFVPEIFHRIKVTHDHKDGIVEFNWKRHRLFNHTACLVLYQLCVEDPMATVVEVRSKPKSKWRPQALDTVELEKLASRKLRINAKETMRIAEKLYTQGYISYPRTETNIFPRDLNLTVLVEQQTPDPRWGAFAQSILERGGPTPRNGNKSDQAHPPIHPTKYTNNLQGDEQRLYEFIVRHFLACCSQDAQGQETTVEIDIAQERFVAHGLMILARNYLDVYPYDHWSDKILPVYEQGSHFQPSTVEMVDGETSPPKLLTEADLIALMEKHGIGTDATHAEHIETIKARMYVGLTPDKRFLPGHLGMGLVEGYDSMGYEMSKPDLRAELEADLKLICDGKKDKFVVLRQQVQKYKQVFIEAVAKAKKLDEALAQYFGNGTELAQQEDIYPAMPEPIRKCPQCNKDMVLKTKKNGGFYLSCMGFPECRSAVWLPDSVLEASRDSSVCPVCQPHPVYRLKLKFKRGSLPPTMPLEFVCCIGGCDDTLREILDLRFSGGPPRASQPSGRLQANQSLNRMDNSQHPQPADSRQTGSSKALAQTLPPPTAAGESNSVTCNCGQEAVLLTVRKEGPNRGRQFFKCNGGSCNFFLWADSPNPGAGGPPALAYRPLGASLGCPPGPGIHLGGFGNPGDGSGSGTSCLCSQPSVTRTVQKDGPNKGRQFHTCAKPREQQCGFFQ

B1: EMSA substrate 80-mer (ssDNA)
DNA: ACCACATTAACAACATAAAACCCTCATTCACACGAGAAAACACCCTCATGTTCATACACCTATCCCCCATTCTCCTCCTA
TOP3A Ser810*
  binding result: binds
TOP3A Met575Val
  binding result: no binding
TOP3A Leu37Val
  binding result: no binding
